Here are results for three molecules from patent US11674959B2, “Methods for identifying and preparing pharmaceutical agents for activating Tie1 and/or Tie2 receptors” (The Johns Hopkins University, priority 2017, dated 2023).

Assay [1] concerns MEC monolayers. As to the kind of experiment: FITC Transwell permeability assay. As to conditions: single agent alone; FITC-Dextran 40 kDa, three hours. The class given is cell-based, human. On the procedure: The integrity of these junctions is also important for the regulation of monolayer permeability by controlling the size of intercellular openings. The effect of the AXT107 on EC permeability was further investigated by the transendothelial diffusion of FITC-labeled dextran across MEC monolayers seeded onto permeable Transwell® substrates.
(§1) Human dermal microvascular endothelial cells (Lonza) were maintained at 37° C. and 5% CO2 in EBM-2MV medium (Lonza) and used between passages two through seven. Where applicable, cells were serum starved in EBM-2 medium (Lonza) with no supplements. For FITC-Dextran permeability assays phenol red-free media were used to avoid auto-fluorescence. AXT107 were manufactured at New England Peptide by […], lyophilized, and dissolved in 100% DMSO.
Transwell, twenty-four-well inserts (Corning) were coated with 7.5 μg/cm^2 FN1 for two hours at 37° C., aspirated, and then dried for thirty minutes at room temperature. Wells were then seeded with 7.5×10^4 MECs in 100 μl of EBM-2 media (without phenol red) and allowed to settle for thirty minutes at room temperature. 1 ml of EGM-2 media was then added to the bottom chamber and an additional 200 μl to the top chamber. The plate was incubated for twenty-four hours at 37° C. after which the media was aspirated and an additional 7.5×10^4 MECs were plated in each well as described above. After forty-eight hours at 37° C., the media was aspirated from both chambers and the cells were washed twice in dPBS containing Ca^2+ and Mg^2+, once with EBM-2 media (without phenol red) and serum starved in EBM-2 media applied to both chambers for two hours at 37° C. After this incubation, 100 μM AXT107 or an equivalent amount of DMSO vehicle was added and incubated for an additional ninety minutes. In the top chamber, the cells were then treated with 200 ng/ml Ang2, 100 ng/ml VEGFA, both, or PBS control and in the bottom chamber, the cells were then treated with 25 μg/ml FITC-Dextran (40 kDa MW). AXT107 was also added in both chambers to maintain a concentration of 100 μM. After three hours, 10 μl was removed from the top chamber of each well and mixed with 90 μl of water in a clear bottom, 96-well plate. Fluorescence values for each sample were calculated using a Perkin Elmer plate reader.

The test system of assay [2] is Tie2. As to the kind of experiment: Western blot of MEC lysates, Ang1/2 signaling: Tie2 phosphorylation. As to conditions: ligand alone, no AXT107. Format: cell-based, human. On the procedure:
To investigate the effects of the integrin inhibitor AXT107 on Tie2 signaling, confluent monolayers of microvascular endothelial cells (MECs) on fibronectin-coated dishes were treated with various concentrations of AXT107 followed by exposure to the Tie2 ligands Ang1 or Ang2.
as §1
For Ang1/2 signaling investigations, cell culture dishes (10 cm diameter) were coated with 5 μg/ml fibronectin (FN1; Sigma-Aldrich, St. Louis, Mo.) for two hours at 37° C. The FN1 solution was then removed by aspiration and 5×10^6 microvascular endothelial cells (MECs; Lonza, Walkersville, Md.) were plated in EGM-2MV media (Lonza) and cultured for forty-eight hours at 37° C. The cells were then serum starved for sixteen hours in serum-free EGM-2 base media (Lonza). AXT107 (0-100 μM, as indicated) was subsequently added to each culture and incubated for seventy-five minutes at 37° C. The cultures were then treated with 1 mM sodium vanadate (New England Biolabs, Ipswich, Mass.) for fifteen minutes to enhance the phospho-Tie2 signal followed by stimulation with 200 ng/ml angiopoietin (R&D Systems, Minneapolis, Minn.) for an additional fifteen minutes. The cells were then transferred to ice, washed twice with ice cold Dulbecco's phosphate-buffered saline (dPBS) containing Ca^2+ and Mg^2+, and collected by scraping in 500 μl of 1× Blue Loading Buffer (Cell Signaling, Danvers, Mass.). Lysate samples were then sonicated, boiled, and resolved by SDS-PAGE. Specific proteins were identified by Western blot, using the following primary antibodies: Cell Signaling—phospho-Tie2 (Y992) (Cat #: 4221), Tie2 (Cat #: 7403), phospho-Stat3 (Y705) (Cat #: 4113), Stat3 (Cat #: 4904), phospho-Akt (S473) (Cat #: 4058), Akt (Cat #: 9272), phospho-p44/42 MAPK (T202/Y204) (Cat #: 4370), p44/42 MAPK (Cat #: 4695); BD Transduction Laboratories—β1 integrin (Cat #: 610467); Millipore—α5 integrin (Cat #: AB1928) and detected with HRP-conjugated goat anti-rabbit and sheep anti-mouse secondary antibodies (GE healthcare).

Consider VEGF [reference compound], for which the “FITC-dextran diffusion across the monolayer, agent alone” value in assay [1] is “appeared to increase permeability (although non-significantly)”.

B1: Ang2: angiopoietin 2, Tie2 ligand (protein)
chain: YNNFRKSMDSIGKKQYQVQHGSCSYTFLLPEMDNCRSSSSPYVSNAVQRDAPLEYDDSVQRLQVLENIMENNTQWLMKLENYIQDNMKKEMVEIQQNAVQNQTAVMIEIGTNLLNQTAEQTRKLTDVEAQVLNQTTRLELQLLEHSLSTNKLEKQILDQTSEINKLQDKNSFLEKKVLAMEDKHIIQLQSIKEEKDQLQVLVSKQNSIIEELEKKIVTATVNNSVLQKQQHDLMETVNNLLTMMSTSNSAKDPTVAKEEQISFRDCAEVFKSGHTTNGIYTLTFPNSTEEIKAYCDMEAGGGGWTIIQRREDGSVDFQRTWKEYKVGFGNPSGEYWLGNEFVSQLTNQQRYVLKIHLKDWEGNEAYSLYEHFYLSSEELNYRIHLKGLTGTAGKISSISQPGNDFSTKDGDNDKCICKCSQMLTGGWWFDACGPSNLNGMYYPQRQNTNKFNGIKWYYWKGSGYSLKATTMMIRPADF
With B1, in assay [2], the “Tie2 phosphorylation by ligand alone” value was “insignificant effects by itself”. In assay [1], the “FITC-dextran diffusion across the monolayer, agent alone” value is on record as “influenced FITC-dextran diffusion across the monolayer”.

B2: Ang1: angiopoietin 1, Tie2 ligand (protein)
chain: SNQRRSPENSGRRYNRIQHGQCAYTFILPEHDGNCRESTTDQYNTNALQRDAPHVEPDFSSQKLQHLEHVMENYTQWLQKLENYIVENMKSEMAQIQQNAVQNHTATMLEIGTSLLSQTAEQTRKLTDVETQVLNQTSRLEIQLLENSLSTYKLEKQLLQQTNEILKIHEKNSLLEHKILEMEGKHKEELDTLKEEKENLQGLVTRQTYIIQELEKQLNRATTNNSVLQKQQLELMDTVHNLVNLCTKEGVLLKGGKREEEKPFRDCADVYQAGFNKSGIYTIYINNMPEPKKVFCNMDVNGGGWTVIQHREDGSLDFQRGWKEYKMGFGNPSGEYWLGNEFIFAITSQRQYMLRIELMDWEGNRAYSQYDRFHIGNEKQNYRLYLKGHTGTAGKQSSLILHGADFSTKDADNDNCMCKCALMLTGGWWFDACGPSNLNGMFYTAGQNHGKLNGIKWHYFKGPSYSLRSTTMMIRPLDF
As for B2, in assay [2], the “Tie2 phosphorylation by ligand alone” value was “induced phosphorylation of Tie2”.
